From paper PMC12212125, “Constitutively active Arabidopsis cryptochrome two alleles identified using yeast selection and deep mutational scanning” (The Journal of Biological Chemistry, 2025)

B1: Arabidopsis thaliana cryptochrome 2 (CRY2, UniProt Q96524), residues 1-535 fused after the Gal4 DNA-binding domain (Gal4BD-CRY2(535)); mutagenized window 321-412, Q96524 (parent)
chain: MKMDKKTIVWFRRDLRIEDNPALAAAAHEGSVFPVFIWCPEEEGQFYPGRASRWWMKQSLAHLSQSLKALGSDLTLIKTHNTISAILDCIRVTGATKVVFNHLYDPVSLVRDHTVKEKLVERGISVQSYNGDLLYEPWEIYCEKGKPFTSFNSYWKKCLDMSIESVMLPPPWRLMPITAAAEAIWACSIEELGLENEAEKPSNALLTRAWSPGWSNADKLLNEFIEKQLIDYAKNSKKVVGNSTSLLSPYLHFGEISVRHVFQCARMKQIIWARDKNSEGEESADLFLRGIGLREYSRYICFNFPFTHEQSLLSHLRFFPWDADVDKFKAWRQGRTGYPLVDAGMRELWATGWMHNRIRVIVSSFAVKFLLLPWKWGMKYFWDTLLDADLECDILGWQYISGSIPDGHELDRLDNPALQGAKYDPEGEYIRQWLPELARLPTEWIHHPWDAPLTVLKASGVELGTNYAKPIVDIDTARELLAKAISRTREAQIMIGAAPDEIVADSFEALGANTIKEPGLCPSVSSNDQQVPSAV

Variants of: B1
Test: yeast two-hybrid growth selection (MaV203; Gal4BD-CRY2(1-535) library x Gal4AD-CIB1; URA3 reporter on SC -Trp/-Leu/-Ura) in the dark, deep sequencing before and after selection, Enrich2 scoring; three independent screens (one at 48 h, two …)
Details: with CIB1 (CRYPTOCHROME-INTERACTING BASIC-HELIX-LOOP-HELIX 1), dark (no blue light), screens 1, 3 and 4, Svar > 0 = enriched under dark selection for CRY2-CIB1 two-hybrid growth (URA3 reporter), < 0 = depleted, relative to wild type (whose scores are 0). 'The Enrich2 software calculates, parent: 0, not an affinity, scale: Enrich2 score, numbering: uniprot, sequence starts at 1

Variant | enrichment
W331C | -0.871
W331L | 1
W331G | -1.69
W331R | -1.72
D324G | -0.17
D324V | 2.44
D324A | 0.0228
D324N | -0.413
D324E | 0.371
D324Y | 0.863
K327R | 0.118
K327Q | 0.397
K327M | -0.448
K327N | -0.0863
K327T | -0.117
K327E | -1.63
G334S | -0.925
G334C | 0.0705
G334V | -0.578
G334A | -1.45
W321L | -1.18
W321C | -0.0126
W321G | -0.157

Variant | enrichment
W321R | 0.946
D322A | -0.241
D322Y | -0.959
D322G | 0.357
D322E | 0.472
D322N | 0.239
D322V | 0.286
P339L | -1.02
D326A | -0.893
D326Y | -0.976
D326E | -1.28
D326G | 0.327
D326V | -0.872
D326N | -0.256
R332K | -1.23
R332G | -0.0201
R332S | 0.5
R332I | -0.681
A323S | 0.117
A323D | 0.677
A323T | -0.65
A323V | -0.61
F328P | 0.453

Variant | enrichment
F328S | -1.95
F328V | -2.43
F328I | -1.51
F328L | -0.872
F328Y | -0.296
F328C | -1.53
Q333K | -0.851
Q333P | -1.44
Q333L | -0.0861
Q333R | 1.48
Q333H | 0.227
T336A | -1.84
T336P | -0.907
T336S | 0.494
T336N | -0.274
T336I | -1.58
A330S | -0.0962
A330T | -0.56
A330D | -0.577
A330G | -2.23
A330V | -1.26
A330P | -1.93
R335S | -0.537

Variant | enrichment
R335K | 0.204
R335T | 1.74
R335G | -1.19
V325G | 0.408
V325D | -1.89
V325I | -0.344
V325A | -0.239
V325F | -0.532
Y338C | -1.57
Y338D | -1.31
Y338F | -0.84
Y338N | -1.68
Y338H | -0.584
Y338S | -0.758
G337C | -1.19
G337R | -0.665
G337S | -0.736
G337V | -1.13
K329E | -0.264
K329N | 0.546
K329M | 0.675
K329R | 0.366
K329T | 0.41

Variants of: B1
Test: yeast two-hybrid, quantitative GalUAS-lacZ (beta-galactosidase) reporter assay
Details: with itself; dark; strain AH109; parent: 25; read off a plot

Variant | response
MKMDKKTIVWFRRDLRIEDNPALAAAAHEGSVFPVFIWCPEEEGQFYPGRASRWWMKQSLAHLSQSLKALGSDLTLIKTHNTISAILDCIRVTGATKVVFNHLYDPVSLVRDHTVKEKLVERGISVQSYNGDLLYEPWEIYCEKGKPFTSFNSYWKKCLDMSIESVMLPPPWRLMPITAAAEAIWACSIEELGLENEAEKPSNALLTRAWSPGWSNADKLLNEFIEKQLIDYAKNSKKVVGNSTSLLSPYLHFGEISVRHVFQCARMKQIIWARDKNSEGEESADLFLRGIGLREYSRYICFNFPFTHEQSLLSHLRFFPWDADVDKFKAWRQGRTGYPLVDAGMRELWATGWMHNRIRVIVSSFAVKFLLLPWKWGRKYFWDTLLDADLECDILGWQYISGSIPDGHELDRLDNPALQGAKYDPEGEYIRQWLPELARLPTEWIHHPWDAPLTVLKASGVELGTNYAKPIVDIDTARELLAKAISRTREAQIMIGAAPDEIVADSFEALGANTIKEPGLCPSVSSNDQQVPSAV [chain 1 M378R] | 210 Miller units
MKMDKKTIVWFRRDLRIEDNPALAAAAHEGSVFPVFIWCPEEEGQFYPGRASRWWMKQSLAHLSQSLKALGSDLTLIKTHNTISAILDCIRVTGATKVVFNHLYDPVSLVRDHTVKEKLVERGISVQSYNGDLLYEPWEIYCEKGKPFTSFNSYWKKCLDMSIESVMLPPPWRLMPITAAAEAIWACSIEELGLENEAEKPSNALLTRAWSPGWSNADKLLNEFIEKQLIDYAKNSKKVVGNSTSLLSPYLHFGEISVRHVFQCARMKQIIWARDKNSEGEESADLFLRGIGLREYSRYICFNFPFTHEQSLLSHLRFFPWDADVDKFKAWRQGRTGYPLVDAGMRELWATGWMHNRIRVIVSSFAVKFLLLPWKWGMKYFWDTLLDADLECAILGWQYISGSIPDGHELDRLDNPALQGAKYDPEGEYIRQWLPELARLPTEWIHHPWDAPLTVLKASGVELGTNYAKPIVDIDTARELLAKAISRTREAQIMIGAAPDEIVADSFEALGANTIKEPGLCPSVSSNDQQVPSAV [chain 1 D393A] | 160 Miller units
MKMDKKTIVWFRRDLRIEDNPALAAAAHEGSVFPVFIWCPEEEGQFYPGRASRWWMKQSLAHLSQSLKALGSDLTLIKTHNTISAILDCIRVTGATKVVFNHLYDPVSLVRDHTVKEKLVERGISVQSYNGDLLYEPWEIYCEKGKPFTSFNSYWKKCLDMSIESVMLPPPWRLMPITAAAEAIWACSIEELGLENEAEKPSNALLTRAWSPGWSNADKLLNEFIEKQLIDYAKNSKKVVGNSTSLLSPYLHFGEISVRHVFQCARMKQIIWARDKNSEGEESADLFLRGIGLREYSRYICFNFPFTHEQSLLSHLRFFPWDADVDKFKAWRQGRTGYPLVDAGMRELWATGWMHNRIRVIVSSFAVKFLLLPWKWGMKYFWDTLLDADLECSILGWQYISGSIPDGHELDRLDNPALQGAKYDPEGEYIRQWLPELARLPTEWIHHPWDAPLTVLKASGVELGTNYAKPIVDIDTARELLAKAISRTREAQIMIGAAPDEIVADSFEALGANTIKEPGLCPSVSSNDQQVPSAV [chain 1 D393S] | 170 Miller units
MKMDKKTIVWFRRDLRIEDNPALAAAAHEGSVFPVFIWCPEEEGQFYPGRASRWWMKQSLAHLSQSLKALGSDLTLIKTHNTISAILDCIRVTGATKVVFNHLYDPVSLVRDHTVKEKLVERGISVQSYNGDLLYEPWEIYCEKGKPFTSFNSYWKKCLDMSIESVMLPPPWRLMPITAAAEAIWACSIEELGLENEAEKPSNALLTRAWSPGWSNADKLLNEFIEKQLIDYAKNSKKVVGNSTSLLSPYLHFGEISVRHVFQCARMKQIIWARDKNSEGEESADLFLRGIGLREYSRYICFNFPFTHEQSLLSHLRFFPWDADVDKFKAWRQGRTGYPLVDAGMRELWATGWMHNRIRVIVSSFAVKFLLLPAKWGMKYFWDTLLDADLECDILGWQYISGSIPDGHELDRLDNPALQGAKYDPEGEYIRQWLPELARLPTEWIHHPWDAPLTVLKASGVELGTNYAKPIVDIDTARELLAKAISRTREAQIMIGAAPDEIVADSFEALGANTIKEPGLCPSVSSNDQQVPSAV [chain 1 W374A] | 170 Miller units

Same assay, conditions: with itself; light; strain AH109; parent: 220; read off a plot

Variant | response
MKMDKKTIVWFRRDLRIEDNPALAAAAHEGSVFPVFIWCPEEEGQFYPGRASRWWMKQSLAHLSQSLKALGSDLTLIKTHNTISAILDCIRVTGATKVVFNHLYDPVSLVRDHTVKEKLVERGISVQSYNGDLLYEPWEIYCEKGKPFTSFNSYWKKCLDMSIESVMLPPPWRLMPITAAAEAIWACSIEELGLENEAEKPSNALLTRAWSPGWSNADKLLNEFIEKQLIDYAKNSKKVVGNSTSLLSPYLHFGEISVRHVFQCARMKQIIWARDKNSEGEESADLFLRGIGLREYSRYICFNFPFTHEQSLLSHLRFFPWDADVDKFKAWRQGRTGYPLVDAGMRELWATGWMHNRIRVIVSSFAVKFLLLPWKWGRKYFWDTLLDADLECDILGWQYISGSIPDGHELDRLDNPALQGAKYDPEGEYIRQWLPELARLPTEWIHHPWDAPLTVLKASGVELGTNYAKPIVDIDTARELLAKAISRTREAQIMIGAAPDEIVADSFEALGANTIKEPGLCPSVSSNDQQVPSAV [chain 1 M378R] | 240 Miller units
MKMDKKTIVWFRRDLRIEDNPALAAAAHEGSVFPVFIWCPEEEGQFYPGRASRWWMKQSLAHLSQSLKALGSDLTLIKTHNTISAILDCIRVTGATKVVFNHLYDPVSLVRDHTVKEKLVERGISVQSYNGDLLYEPWEIYCEKGKPFTSFNSYWKKCLDMSIESVMLPPPWRLMPITAAAEAIWACSIEELGLENEAEKPSNALLTRAWSPGWSNADKLLNEFIEKQLIDYAKNSKKVVGNSTSLLSPYLHFGEISVRHVFQCARMKQIIWARDKNSEGEESADLFLRGIGLREYSRYICFNFPFTHEQSLLSHLRFFPWDADVDKFKAWRQGRTGYPLVDAGMRELWATGWMHNRIRVIVSSFAVKFLLLPWKWGMKYFWDTLLDADLECAILGWQYISGSIPDGHELDRLDNPALQGAKYDPEGEYIRQWLPELARLPTEWIHHPWDAPLTVLKASGVELGTNYAKPIVDIDTARELLAKAISRTREAQIMIGAAPDEIVADSFEALGANTIKEPGLCPSVSSNDQQVPSAV [chain 1 D393A] | 180 Miller units
MKMDKKTIVWFRRDLRIEDNPALAAAAHEGSVFPVFIWCPEEEGQFYPGRASRWWMKQSLAHLSQSLKALGSDLTLIKTHNTISAILDCIRVTGATKVVFNHLYDPVSLVRDHTVKEKLVERGISVQSYNGDLLYEPWEIYCEKGKPFTSFNSYWKKCLDMSIESVMLPPPWRLMPITAAAEAIWACSIEELGLENEAEKPSNALLTRAWSPGWSNADKLLNEFIEKQLIDYAKNSKKVVGNSTSLLSPYLHFGEISVRHVFQCARMKQIIWARDKNSEGEESADLFLRGIGLREYSRYICFNFPFTHEQSLLSHLRFFPWDADVDKFKAWRQGRTGYPLVDAGMRELWATGWMHNRIRVIVSSFAVKFLLLPWKWGMKYFWDTLLDADLECSILGWQYISGSIPDGHELDRLDNPALQGAKYDPEGEYIRQWLPELARLPTEWIHHPWDAPLTVLKASGVELGTNYAKPIVDIDTARELLAKAISRTREAQIMIGAAPDEIVADSFEALGANTIKEPGLCPSVSSNDQQVPSAV [chain 1 D393S] | 160 Miller units
MKMDKKTIVWFRRDLRIEDNPALAAAAHEGSVFPVFIWCPEEEGQFYPGRASRWWMKQSLAHLSQSLKALGSDLTLIKTHNTISAILDCIRVTGATKVVFNHLYDPVSLVRDHTVKEKLVERGISVQSYNGDLLYEPWEIYCEKGKPFTSFNSYWKKCLDMSIESVMLPPPWRLMPITAAAEAIWACSIEELGLENEAEKPSNALLTRAWSPGWSNADKLLNEFIEKQLIDYAKNSKKVVGNSTSLLSPYLHFGEISVRHVFQCARMKQIIWARDKNSEGEESADLFLRGIGLREYSRYICFNFPFTHEQSLLSHLRFFPWDADVDKFKAWRQGRTGYPLVDAGMRELWATGWMHNRIRVIVSSFAVKFLLLPAKWGMKYFWDTLLDADLECDILGWQYISGSIPDGHELDRLDNPALQGAKYDPEGEYIRQWLPELARLPTEWIHHPWDAPLTVLKASGVELGTNYAKPIVDIDTARELLAKAISRTREAQIMIGAAPDEIVADSFEALGANTIKEPGLCPSVSSNDQQVPSAV [chain 1 W374A] | 180 Miller units
